# Test results as given in IntAct's records for PubMed 20727515.
# B1: ADP-ribosylation factor 6 (Homo sapiens), P62330 (parent)
# chain: MGKVLSKIFGNKEMRILMLGLDAAGKTTILYKLKLGQSVTTIPTVGFNVETVTYKNVKFNVWDVGGQDKIRPLWRHYYTGTQGLIFVVDCADRDRIDEARQELHRIINDREMRDAIILIFANKQDLPDAMKPHEIQEKLGLTRIRDRNWYVQPSCATSGDGLYEGLTWLTSNYKS
# partner: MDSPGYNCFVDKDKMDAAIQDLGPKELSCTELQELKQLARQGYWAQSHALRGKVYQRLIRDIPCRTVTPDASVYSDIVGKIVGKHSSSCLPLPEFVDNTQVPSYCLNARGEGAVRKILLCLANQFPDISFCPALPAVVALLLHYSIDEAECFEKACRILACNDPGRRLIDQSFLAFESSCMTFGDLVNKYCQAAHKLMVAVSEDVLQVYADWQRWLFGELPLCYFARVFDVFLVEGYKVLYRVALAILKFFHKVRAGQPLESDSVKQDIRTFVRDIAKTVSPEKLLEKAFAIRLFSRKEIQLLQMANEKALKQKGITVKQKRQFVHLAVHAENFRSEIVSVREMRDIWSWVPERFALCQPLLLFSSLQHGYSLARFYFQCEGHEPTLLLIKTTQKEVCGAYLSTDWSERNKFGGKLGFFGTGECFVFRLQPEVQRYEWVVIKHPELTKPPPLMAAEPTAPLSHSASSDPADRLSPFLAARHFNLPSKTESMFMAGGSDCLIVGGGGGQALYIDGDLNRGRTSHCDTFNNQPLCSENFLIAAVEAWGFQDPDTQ
# B2: TBC1 domain family member 24 (Homo sapiens), Q9ULP9-2 (parent)
# chain: B1 partner
# Variants of: B1
# Details: with TBC1D24, Q9ULP9-2
row,effect of a mutation on the interaction,Variant
1,increasing interaction strength,T27N
2,with no effect,Q67L

# Variants of: B2
# Details: with arf6_human ARF6, P62330
row,effect of a mutation on the interaction,Variant
1,with no effect,A509V
2,decreasing interaction strength,D147H
